The results in this text go back to paper PMC3485042.

This data set deals with IhfAB (integration host factor) (UniProt P0A6X7+P0A6Y1). Kind of data set: DNase I footprinting. The following applies: 25 mM Tris-HCl pH 7.5, 50 mM KCl, 6.25 mM MgCl2, 10% glycerol, 1 mM DTT, 30 min room temperature; then 2.5 mM CaCl2 and 5 mM MgCl2 added for DNase I (1 min).
Chain of UniProt P0A6X7 (P0A6X7 whole entry, chain 1 of 2): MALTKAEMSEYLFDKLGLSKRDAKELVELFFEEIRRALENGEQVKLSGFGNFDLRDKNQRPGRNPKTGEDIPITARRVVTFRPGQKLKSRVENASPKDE
Chain of UniProt P0A6X7 (P0A6Y1 whole entry, chain 2 of 2): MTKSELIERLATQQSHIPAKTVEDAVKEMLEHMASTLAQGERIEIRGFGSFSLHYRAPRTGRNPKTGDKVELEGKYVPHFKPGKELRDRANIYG

As for “TCTGGTTTGGTTTTGTTTTGCGGGTTAAAAGATCGTTTAAATCAATATTTACAACATAAAAAACTAAATTTAACTTATTGCGTGAAGAGTATTTCCGGGCCGGAAGCATATATCCAGGGGCCCGACAGAAGGGGGAAACAT (double strand) [papB promoter region (141 bp PCR product)]”, the binding result is “binds”.
